These are literature values, as cited in PMC7396566.

For orientation: Kd means the constant that tells how readily two partners part at equilibrium.

In one data set the target is IL-7Rα (Homo sapiens) (UniProt P16871).
The target in the next data set is TSLP (Homo sapiens) (UniProt Q969D9).
Data set [1] addresses TSLP:TSLPR complex (Homo sapiens) (UniProt Q969D9).

Sequence of TSLPR (Q9HC73 23-231): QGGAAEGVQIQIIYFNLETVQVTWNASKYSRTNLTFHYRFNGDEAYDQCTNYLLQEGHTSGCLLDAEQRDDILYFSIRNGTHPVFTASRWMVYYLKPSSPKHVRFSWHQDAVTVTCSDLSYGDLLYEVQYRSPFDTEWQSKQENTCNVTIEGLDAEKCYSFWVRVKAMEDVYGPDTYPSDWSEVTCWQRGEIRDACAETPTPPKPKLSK

For the substance TSLPR (from UniProt Q9HC73), the Kd with IL-7Rα (Homo sapiens) was 20000 nM; in the data set with TSLP (Homo sapiens), 32 nM.
For the substance IL-7Rα (from UniProt P16871), the Kd in data set [1] was 29 nM.
